Experimental data reported in patent US20240352438A1, “MEANS AND METHODS FOR DETOXIFYING OCHRATOXIN A” (DSM Austria GmbH, priority 2021, published 2024).

Tests used:
[1] = Enzymatic activity comparison: activity remaining after 65° C. for 10 min at pH 6.0, relative to SEQ ID NO: 1; assay type: physicochemical
Experimental: To compare the temperature behavior and thermostability of selected enzymes to one another, enzyme was incubated at 65° C. for 10 min at pH 6.0. The enzymatic activity remaining after incubation was compared to the remaining activity of the enzyme of SEQ ID NO: 1 after incubation, the latter being set to 100%, see Table 16.

[2] = OTA detoxification activity assay (specific activity, fluorescence reduction ex/em 390/450 nm); assay type: biochemical; conditions: SEQ ID NO: 1 = 100%
Procedure, shortened: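 Recombinant enzyme preparation with 200 ng/mL OTA in 100 mM sodium phosphate, at pH 6.0 and pH 7.5, 37° C. Degradation followed as the fall in fluorescence at ex/em 390/450 nm. Specific activity taken from the initial linear slope; one unit degrades 1 μmol OTA per min at a starting OTA of […].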

Row | Molecule | Enzymatic activity remaining after incubation, compared to SEQ ID NO: 1 (set to 100%) [1] [%] | Specific OTA detoxification activities in % compared to the enzyme of SEQ ID NO: 1, pH 6.0 [2] [%] | Specific OTA detoxification activities in % compared to the enzyme of SEQ ID NO: 1, pH 7.5 [2] [%]
1 | 138 (protein, exemplary polypeptide) MTTRTRILTAFLSLLAANACAADAAPAAPHTVVLRAARMFDGASGKLVDHPQLTIVGNKIVRIAQGDKAEVPAGAEVVDLGDATLLPGFIDAHVHLPGQSSDNWYGDFFDNMMRFPAEQALYGAYYARITLEAGFTSVRDVGSTDWVALGLRNAIDAGKVPGPRMLVSNYAVGSTGGHADQDPIPPHKLPLAGPLQGVCNGPEECRAAVRYQIKYGANVIKFMPSGGVLSLSDPVDAPELSQDEMNAVIGESHAWGRKVAAHAHGDKAAKMAVAAGVDSIEHGSFIEDDTLRAMKAKNVYLVPTISAIAHVEEKIGTFPPVIAEKGRAAAAHLRQTFRHAVQIGVPIALGTDAGVGAHGSNAREFRYMVENGLTPAQALLAGTANAARLLGTFDRVGTLEAGKLADVVAVPGNPIADITVTERPLFVMKDGVVVRRDAVR | 27 | 46 | 29
2 | 144 (protein, exemplary polypeptide) MTTRTRILTAFLSLLAANACAADAAPAAPHTVVLRAARMFDGASGKLVDHPQLTIVGNKIVRIAQGDKAEVPAGAEVVDLGDATLLPGFIDAHVHLSGQSSDNWYGDFFDNMMRFPAEQALYGAYYARITLEAGFTSVRDVGSEDWVALGLRNAIDAGKVPGPRMLVSNYAVGSTGGHADQDPIPPHKLPLAGPLQGVCNGPEECRAAVRYQIKYGANVIKFMPSGGVLSLSDPVDAPELSQDEMNAVIGESHAWGRKVAAHAHGDKAAKMAVAAGVDSIEHGSFIEDDTLRAMKAKNVYLVPTISAIAHVEEKIGTFPPVIAEKGRAAAAHLRQTFRHAVQIGVPIALGTDAGVGAHGSNAREFRYMVENGLTPAQALLAGTANAARLLGTFDRVGTLEAGKLADVVAVPGNPIADITVTERPLFVMKDGVVVRRDAVR | 28 | 78 | 95
3 | 145 (protein, exemplary polypeptide) MTTRTRILTAFLSLLAANACAADAAPAAPHTVVLRAARMFDGASGKLVDHPQLTIVGNKIVRIAQGDKAEVPAGAEVVDLGDATLLPGFIDAHVHLSGQSSDNWYGDFFDNMMRFPAEQALYGAYYARITLEAGFTSVRDVGSPDWVALGLRNAIDAGKVPGPRMLVSNYAVGSTGGHADQDPIPPHKLPLAGPLQGVCNGPEECRAAVRYQIKYGANVIKFMPSGGVLSLSDPVDAPELSQDEMNAVIGESHAWGRKVAAHAHGDKAAKMAVAAGVDSIEHGSFIEDDTLRAMKAKNVYLVPTISAIAHVEEKIGTFPPVIAEKGRAAAAHLRQTFRHAVQIGVPIALGTDAGVGAHGSNAREFRYMVENGLTPAQALLAGTANAARLLGTFDRVGTLEAGKLADVVAVPGNPIADITVTERPLFVMKDGVVVRRDAVR | 47 | 101 | 90
4 | 140 (protein, exemplary polypeptide) MTTRTRILTAFLSLLAANACAADAAPAAPHTVVLRAARMFDGASGKLVDHPQLTIVGNKIVRIAQGDKAEVPAGAEVVDLGDATLLPGFIDAHVHLVGQSSDNWYGDFFDNMMRFPAEQALYGAYYARITLEAGFTSVRDVGSTDWVALGLRNAIDAGKVPGPRMLVSNYAVGSTGGHADQDPIPPHKLPLAGPLQGVCNGPEECRAAVRYQIKYGANVIKFMPSGGVLSLSDPVDAPELSQDEMNAVIGESHAWGRKVAAHAHGDKAAKMAVAAGVDSIEHGSFIEDDTLRAMKAKNVYLVPTISAIAHVEEKIGTFPPVIAEKGRAAAAHLRQTFRHAVQIGVPIALGTDAGVGAHGSNAREFRYMVENGLTPAQALLAGTANAARLLGTFDRVGTLEAGKLADVVAVPGNPIADITVTERPLFVMKDGVVVRRDAVR | 34 | 118 | 120
5 | 141 (protein, exemplary polypeptide) MTTRTRILTAFLSLLAANACAADAAPAAPHTVVLRAARMFDGASGKLVDHPQLTIVGNKIVRIAQGDKAEVPAGAEVVDLGDATLLPGFIDAHVHLSGQSSDNWYGDFFDNMMRFPAEQALYGAYYARITLEAGFTSVRDVASTDWVALGLRNAIDAGKVPGPRMLVSNYAVGSTGGHADQDPIPPHKLPLAGPLQGVCNGPEECRAAVRYQIKYGANVIKFMPSGGVLSLSDPVDAPELSQDEMNAVIGESHAWGRKVAAHAHGDKAAKMAVAAGVDSIEHGSFIEDDTLRAMKAKNVYLVPTISAIAHVEEKIGTFPPVIAEKGRAAAAHLRQTFRHAVQIGVPIALGTDAGVGAHGSNAREFRYMVENGLTPAQALLAGTANAARLLGTFDRVGTLEAGKLADVVAVPGNPIADITVTERPLFVMKDGVVVRRDAVR | 55 | 138 | 123
6 | 146 (protein, exemplary polypeptide) MTTRTRILTAFLSLLAANACAADAAPAAPHTVVLRAARMFDGASGKLVDHPQLTIVGNKIVRIAQGDKAEVPAGAEVVDLGDATLLPGFIDAHVHLSGQSSDNWYGDFFDNMMRFPAEQALYGAYYARITLEAGFTSVRDVGSRDWVALGLRNAIDAGKVPGPRMLVSNYAVGSTGGHADQDPIPPHKLPLAGPLQGVCNGPEECRAAVRYQIKYGANVIKFMPSGGVLSLSDPVDAPELSQDEMNAVIGESHAWGRKVAAHAHGDKAAKMAVAAGVDSIEHGSFIEDDTLRAMKAKNVYLVPTISAIAHVEEKIGTFPPVIAEKGRAAAAHLRQTFRHAVQIGVPIALGTDAGVGAHGSNAREFRYMVENGLTPAQALLAGTANAARLLGTFDRVGTLEAGKLADVVAVPGNPIADITVTERPLFVMKDGVVVRRDAVR | 45 | 172 | 112
7 | 148 (protein, exemplary polypeptide) MTTRTRILTAFLSLLAANACAADAAPAAPHTVVLRAARMFDGASGKLVDHPQLTIVGNKIVRIAQGDKAEVPAGAEVVDLGDATLLPGFIDAHVHLSGQSSDNWYGDFFDNMMRFPAEQALYGAYYARITLEAGFTSVRDVGSTDWVALGLRNAIDAGKVPGPRMLVSNYAVGSTGGHSDQDPIPPHKLPLAGPLQGVCNGPEECRAAVRYQIKYGANVIKFMPSGGVLSLSDPVDAPELSQDEMNAVIGESHAWGRKVAAHAHGDKAAKMAVAAGVDSIEHGSFIEDDTLRAMKAKNVYLVPTISAIAHVEEKIGTFPPVIAEKGRAAAAHLRQTFRHAVQIGVPIALGTDAGVGAHGSNAREFRYMVENGLTPAQALLAGTANAARLLGTFDRVGTLEAGKLADVVAVPGNPIADITVTERPLFVMKDGVVVRRDAVR | 35 | 40 | 19
8 | 139 (protein, exemplary polypeptide) MTTRTRILTAFLSLLAANACAADAAPAAPHTVVLRAARMFDGASGKLVDHPQLTIVGNKIVRIAQGDKAEVPAGAEVVDLGDATLLPGFIDAHVHLTGQSSDNWYGDFFDNMMRFPAEQALYGAYYARITLEAGFTSVRDVGSTDWVALGLRNAIDAGKVPGPRMLVSNYAVGSTGGHADQDPIPPHKLPLAGPLQGVCNGPEECRAAVRYQIKYGANVIKFMPSGGVLSLSDPVDAPELSQDEMNAVIGESHAWGRKVAAHAHGDKAAKMAVAAGVDSIEHGSFIEDDTLRAMKAKNVYLVPTISAIAHVEEKIGTFPPVIAEKGRAAAAHLRQTFRHAVQIGVPIALGTDAGVGAHGSNAREFRYMVENGLTPAQALLAGTANAARLLGTFDRVGTLEAGKLADVVAVPGNPIADITVTERPLFVMKDGVVVRRDAVR | 40 | 141 | 88
9 | 143 (protein, exemplary polypeptide) MTTRTRILTAFLSLLAANACAADAAPAAPHTVVLRAARMFDGASGKLVDHPQLTIVGNKIVRIAQGDKAEVPAGAEVVDLGDATLLPGFIDAHVHLSGQSSDNWYGDFFDNMMRFPAEQALYGAYYARITLEAGFTSVRDVGSDDWVALGLRNAIDAGKVPGPRMLVSNYAVGSTGGHADQDPIPPHKLPLAGPLQGVCNGPEECRAAVRYQIKYGANVIKFMPSGGVLSLSDPVDAPELSQDEMNAVIGESHAWGRKVAAHAHGDKAAKMAVAAGVDSIEHGSFIEDDTLRAMKAKNVYLVPTISAIAHVEEKIGTFPPVIAEKGRAAAAHLRQTFRHAVQIGVPIALGTDAGVGAHGSNAREFRYMVENGLTPAQALLAGTANAARLLGTFDRVGTLEAGKLADVVAVPGNPIADITVTERPLFVMKDGVVVRRDAVR | 21 | 86 | 84
10 | 150 (protein, exemplary polypeptide) MTTRTRILTAFLSLLAANACAADAAPAAPHTVVLRAARMFDGASGKLVDHPQLTIVGNKIVRIAQGDKAEVPAGAEVVDLGDATLLPGFIDAHVHLSGQSSDNWYGDFFDNMMRFPAEQALYGAYYARITLEAGFTSVRDVGSTDWVALGLRNAIDAGKVPGPRMLVSNYPVGSTGGHADQDPVPPHKLPLAGPLQGVCNGPEECRAAVRYQIKYGANVIKFMPSGGVLSLSDPVDAPELSQDEMNAVIGESHAWGRKVAAHAHGDKAAKMAVAAGVDSIEHGSFIEDDTLRAMKAKNVYLVPTISAIAHVEEKIGTFPPVIAEKGRAAAAHLRQTFRHAVQIGVPIALGTDAGVGAHGSNAREFRYMVENGLTPAQALLAGTANAARLLGTFDRVGTLEAGKLADVVAVPGNPIADITVTERPLFVMKDGVVVRRDAVR | 22 | 89 | 62
